Laboratory results taken from the Immune Epitope Database (IEDB).

How the values were obtained:
HLA-B*44:03 = experiment: IEDB peptide-MHC binding, purified MHC/competitive/radioactivity; filed as Kd, often an IC50 or EC50 that approximates it; ≥ and ≤ were set here for values at or beyond the usual limits of such assays
HLA-B*40:02 = experiment: as above
HLA-B*45:01 = experiment: as above
HLA-B*18:01 = experiment: as above
HLA-B*44:02 = experiment: as above
HLA-B*40:01 [1] = experiment: as above
HLA-A*02:01 [2] = experiment: IEDB peptide-MHC binding, purified MHC/competitive/fluorescence; filed as Kd, often an IC50 or EC50 that approximates it; ≥ and ≤ were set here for values at or beyond the usual limits of such assays
HLA-B*35:01 = experiment: IEDB peptide-MHC binding, purified MHC/competitive/radioactivity; filed as Kd, often an IC50 or EC50 that approximates it; ≥ and ≤ were set here for values at or beyond the usual limits of such assays
HLA-B*15:01 [3] = experiment: as above; conditions: source organism: Dengue virus 2 Jamaica/1409/1983
HLA-A*30:02 = experiment: as above; conditions: source organism: Dengue virus 1 Brazil/97-11/1997
HLA-B*39:01 = experiment: IEDB peptide-MHC binding, purified MHC/competitive/fluorescence; filed as Kd, often an IC50 or EC50 that approximates it; ≥ and ≤ were set here for values at or beyond the usual limits of such assays
HLA-B*27:05 = experiment: IEDB peptide-MHC binding, purified MHC/direct/fluorescence; filed as Kd, often an IC50 or EC50 that approximates it; ≥ and ≤ were set here for values at or beyond the usual limits of such assays; conditions: source organism: Rhizobium wenxiniae
HLA-B*07:02 = experiment: as above; conditions: source organism: Rhizobium wenxiniae
HLA-A*11:01 = experiment: as above; conditions: source organism: Rhizobium wenxiniae
HLA-A*69:01 = experiment: as above; conditions: source organism: Rhizobium wenxiniae
HLA-A*03:01 = experiment: as above; conditions: source organism: Rhizobium wenxiniae
HLA-A*26:01 = experiment: as above; conditions: source organism: Rhizobium wenxiniae
HLA-A*02:01 [4] = experiment: as above; conditions: source organism: Rhizobium wenxiniae
HLA-A*01:01 = experiment: as above; conditions: source organism: Rhizobium wenxiniae
HLA-B*40:01 [5] = experiment: as above; conditions: source organism: Rhizobium wenxiniae
HLA-B*08:01 = experiment: as above
HLA-A*31:01 = experiment: as above; conditions: source organism: Rhizobium wenxiniae
HLA-B*15:01 [6] = experiment: as above; conditions: source organism: Rhizobium wenxiniae
HLA-B*58:01 = experiment: as above; conditions: source organism: Amur virus
HLA-B*57:01 = experiment: as above; conditions: source organism: Amur virus
[7] = source organism: SARS coronavirus Tor2
[8] = source organism: Dengue virus 1 Brazil/97-11/1997
[9] = source organism: Mammarenavirus juninense
[10] = source organism: Rhizobium wenxiniae
[11] = source organism: Mammarenavirus tacaribeense
[12] = source organism: Mammarenavirus choriomeningitidis
[13] = source organism: Mammarenavirus whitewaterense

Sequence: GEILLLEWL
- Kd (HLA-B*44:03; [7]): 1.51 nM
- Kd (HLA-B*40:02; [7]): 19500 nM
- Kd (HLA-B*45:01; [7]): 843 nM
- Kd (HLA-B*18:01; [7]): 4.96 µM
- Kd (HLA-B*44:02; [7]): 0.00944 µM
- Kd (HLA-B*40:01 [1]; [7]): 0.363 nM

Sequence: VLSPTIGHV
- Kd (HLA-A*02:01 [2]; source organism: Vaccinia virus WR): 4 nM

Sequence: TPPGSVEAF
- Kd (HLA-B*35:01; [8]): 699 nM

Sequence: QELGHEDLMA
- Kd (HLA-B*44:03; [7]): 2350 nM
- Kd (HLA-B*40:02; [7]): 2580 nM
- Kd (HLA-B*45:01; [7]): 671 nM
- Kd (HLA-B*18:01; [7]): ≥ 70.5 µM
- Kd (HLA-B*44:02; [7]): 4.15 µM
- Kd (HLA-B*40:01 [1]; [7]): ≥ 26900 nM

Sequence: KLFSDISAI
- Kd (HLA-A*02:01 [2]; source organism: Vaccinia virus): 2.2 nM

Sequence: LMCHATFTM
- Kd (HLA-B*35:01; source organism: Dengue virus 2 Jamaica/1409/1983): 1600 nM
- Kd (HLA-B*15:01 [3]): 9.45 nM

Sequence: LPDYGELTLD
- Kd (HLA-B*35:01; source organism: Dengue virus 4 Philippines/H241/1956): 9960 nM

Sequence: SLKDVLVSV
- Kd (HLA-A*02:01 [2]; source organism: Horsepox virus): 3.6 nM

Sequence: YGGPISQHNY
- Kd (HLA-B*35:01; [8]): 406 nM
- Kd (HLA-A*30:02): 192 nM

Sequence: LDLVLLNLL
- Kd (HLA-B*44:03; [9]): ≥ 45400 nM
- Kd (HLA-B*40:02; [9]): 48.5 nM
- Kd (HLA-B*45:01; [9]): 12500 nM
- Kd (HLA-B*18:01; [9]): ≥ 43.6 µM
- Kd (HLA-B*44:02; [9]): ≥ 77.9 µM
- Kd (HLA-B*40:01 [1]; [9]): 18700 nM

Sequence: KLVVVAVGV
- Kd (HLA-A*02:01 [2]; source organism: Schaalia radingae): 10 nM

Sequence: SEEVVENPTI
- Kd (HLA-B*44:03; [7]): 1040 nM
- Kd (HLA-B*40:02; [7]): 402 nM
- Kd (HLA-B*45:01; [7]): 277 nM
- Kd (HLA-B*18:01; [7]): ≥ 48.7 µM
- Kd (HLA-B*44:02; [7]): 0.471 µM
- Kd (HLA-B*40:01 [1]; [7]): 1050 nM

Sequence: REIGFIVPGL
- Kd (HLA-B*44:03; [7]): 4.29 nM
- Kd (HLA-B*40:02; [7]): 0.408 nM
- Kd (HLA-B*45:01; [7]): 103 nM
- Kd (HLA-B*18:01; [7]): 8.67 µM
- Kd (HLA-B*44:02; [7]): 0.0143 µM
- Kd (HLA-B*40:01 [1]; [7]): 0.132 nM

Sequence: FHLRSRFAF
- Kd (HLA-B*39:01; [10]): ≤ 1 nM
- Kd (HLA-B*27:05): ≥ 20 µM
- Kd (HLA-B*07:02): ≥ 20 µM
- Kd (HLA-A*11:01): ≥ 20 µM
- Kd (HLA-A*69:01): ≥ 20 µM
- Kd (HLA-A*03:01): ≥ 20 µM
- Kd (HLA-A*26:01): ≥ 20 µM
- Kd (HLA-A*02:01 [4]): ≥ 20 µM
- Kd (HLA-A*01:01): ≥ 20 µM
- Kd (HLA-B*40:01 [5]): ≥ 20 µM
- Kd (HLA-B*08:01; [10]): 113 nM
- Kd (HLA-A*31:01): ≥ 20 µM
- Kd (HLA-B*15:01 [6]): ≥ 20 µM

Sequence: YLKKKNHPL
- Kd (HLA-A*02:01 [2]; source organism: Bacillus cereus G9241): 6 nM

Sequence: ALAWSLQML
- Kd (HLA-A*02:01 [2]; source organism: Escherichia coli O139:H28 str. E24377A): 3.4 nM

Sequence: EEVPTLIKTL
- Kd (HLA-B*44:03; [11]): 3320 nM
- Kd (HLA-B*40:02; [11]): 6320 nM
- Kd (HLA-B*45:01; [11]): 3020 nM
- Kd (HLA-B*18:01; [11]): ≥ 70.4 µM
- Kd (HLA-B*44:02; [11]): 8.59 µM
- Kd (HLA-B*40:01 [1]; [11]): 7520 nM

Sequence: IEELFYSYAT
- Kd (HLA-B*44:03; [7]): 205 nM
- Kd (HLA-B*40:02; [7]): 51.9 nM
- Kd (HLA-B*45:01; [7]): 10.6 nM
- Kd (HLA-B*18:01; [7]): 0.786 µM
- Kd (HLA-B*44:02; [7]): 0.326 µM
- Kd (HLA-B*40:01 [1]; [7]): 1520 nM

Sequence: YLKPKIWRF
- Kd (HLA-B*08:01; source organism: Campylobacter jejuni subsp. jejuni 81-176): 8 nM

Sequence: QELGKYEQYI
- Kd (HLA-B*44:03; [7]): 187 nM
- Kd (HLA-B*40:02; [7]): 507 nM
- Kd (HLA-B*45:01; [7]): ≥ 20600 nM
- Kd (HLA-B*18:01; [7]): ≥ 70.5 µM
- Kd (HLA-B*44:02; [7]): 0.207 µM
- Kd (HLA-B*40:01 [1]; [7]): 13000 nM

Sequence: VSLTECPTF
- Kd (HLA-B*58:01): 34.8 nM
- Kd (HLA-B*57:01): 474 nM

Sequence: SDAALHNMI
- Kd (HLA-B*44:03; [12]): ≥ 31700 nM
- Kd (HLA-B*40:02; [12]): 1930 nM
- Kd (HLA-B*45:01; [12]): 2120 nM
- Kd (HLA-B*18:01; [12]): ≥ 77.5 µM
- Kd (HLA-B*44:02; [12]): 7.07 µM
- Kd (HLA-B*40:01 [1]; [12]): ≥ 35800 nM

Sequence: YHHTAINVL
- Kd (HLA-B*39:01; source organism: Bacillus anthracis str. A0488): 6.3 nM

Sequence: REPETTVVL
- Kd (HLA-B*44:03; [13]): ≥ 44300 nM
- Kd (HLA-B*40:02; [13]): 92.7 nM
- Kd (HLA-B*45:01; [13]): ≥ 74800 nM
- Kd (HLA-B*18:01; [13]): 7.9 µM
- Kd (HLA-B*44:02; [13]): 18.6 µM
- Kd (HLA-B*40:01 [1]; [13]): 112 nM

Sequence: SDSVCACGL
- Kd (HLA-B*44:03; [13]): 2830 nM
- Kd (HLA-B*40:02; [13]): 3880 nM
- Kd (HLA-B*45:01; [13]): 10600 nM
- Kd (HLA-B*18:01; [13]): ≥ 77.5 µM
- Kd (HLA-B*44:02; [13]): 3.09 µM
- Kd (HLA-B*40:01 [1]; [13]): ≥ 44000 nM
